Legend:
[1] = target: T1, Heparin-binding protein (HBP) (Homo sapiens, UniProt P20160 27-248); assay: SPR; SPR: Biacore T200, CM5 with 815 RU HBP, aptamer 0-1 uM in PBS (NaCl 137 mM, KCl 2.67 mM, Na2HPO4 10 mM, KH2PO4 2 mM, pH 7.4; composition given for CD), 25 C; flow: 500 nM aptamer, PBS, room temperature, 60 min; details: protein: commercial
T1 sequence: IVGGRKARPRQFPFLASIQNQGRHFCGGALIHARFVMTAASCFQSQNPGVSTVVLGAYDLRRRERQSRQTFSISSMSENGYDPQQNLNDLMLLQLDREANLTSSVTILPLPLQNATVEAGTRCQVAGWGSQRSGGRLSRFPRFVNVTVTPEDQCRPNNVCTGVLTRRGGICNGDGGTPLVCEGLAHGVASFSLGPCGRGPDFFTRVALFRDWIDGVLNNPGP

Procalcitonin (PCT) = target: T2, Procalcitonin (PCT) (UniProt P01258 26-141); assay: flow cytometry (magnetic beads); 500 nM aptamer; SPR: Biacore T200, CM5 with 815 RU HBP, aptamer 0-1 uM in PBS (NaCl 137 mM, KCl 2.67 mM, Na2HPO4 10 mM, KH2PO4 2 mM, pH 7.4; composition given for CD), 25 C; flow: 500 nM aptamer, PBS, room temperature, 60 min; details: protein: commercial; label: FAM in flow cytometry
T2 sequence: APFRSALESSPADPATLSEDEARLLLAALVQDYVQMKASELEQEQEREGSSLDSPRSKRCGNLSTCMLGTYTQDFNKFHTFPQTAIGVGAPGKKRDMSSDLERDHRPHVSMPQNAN

Serum amyloid A1 (SAA1) = target: T3, Serum amyloid A1 (SAA1) (UniProt P0DJI8 19-122); assay: as above; details: protein: commercial; label: FAM in flow cytometry
T3 sequence: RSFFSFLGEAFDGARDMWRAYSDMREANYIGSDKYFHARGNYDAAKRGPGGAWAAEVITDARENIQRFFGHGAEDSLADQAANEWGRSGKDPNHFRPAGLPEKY

C-reactive protein (CRP) = target: T4, C-reactive protein (CRP) (UniProt P02741 19-224); assay: as above; details: protein: commercial; chain copies: 5; label: FAM in flow cytometry
T4 sequence: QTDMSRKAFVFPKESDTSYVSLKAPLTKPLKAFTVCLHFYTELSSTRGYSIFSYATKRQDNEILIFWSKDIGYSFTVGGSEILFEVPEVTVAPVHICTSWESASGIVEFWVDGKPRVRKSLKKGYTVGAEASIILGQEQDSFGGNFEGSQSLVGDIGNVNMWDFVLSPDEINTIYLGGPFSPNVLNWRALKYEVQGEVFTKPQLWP

Interleukin-6 (IL-6) = Interleukin-6 (IL-6) (UniProt P05231 30-212); assay: as above; details: protein: commercial; label: FAM in flow cytometry
[2] = target: T1, Heparin-binding protein (HBP); assay: SPR; HBP immobilized, PBS, 25 C; SPR: Biacore T200, CM5 with 815 RU HBP, aptamer 0-1 uM in PBS (NaCl 137 mM, KCl 2.67 mM, Na2HPO4 10 mM, KH2PO4 2 mM, pH 7.4; composition given for CD), 25 C; flow: 500 nM aptamer, PBS, room temperature, 60 min; details: protein: commercial; label: FAM in flow cytometry

Sequence of Interleukin-6 (IL-6) (P05231 30-212): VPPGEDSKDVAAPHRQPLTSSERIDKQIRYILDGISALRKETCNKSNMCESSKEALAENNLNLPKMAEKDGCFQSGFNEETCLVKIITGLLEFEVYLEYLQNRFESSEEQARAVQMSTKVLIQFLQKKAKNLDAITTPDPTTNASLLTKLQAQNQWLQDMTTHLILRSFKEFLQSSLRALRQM

B1: Apt-03 (ssDNA)
DNA: TTCAGCACTCCACGCATAGCTTCACCTACGAACGCCAGTGACAGCACCGATCAGTGCCTATGCGTGCTACCGTGAA
Work on B1 yielded a binding signal [1] of 119 RU.

B2: Apt-02 (ssDNA)
DNA: TTCAGCACTCCACGCATAGCTTCACCTACCGCGCAGCTCAGTCGTTGCCCACACGACCTATGCGTGCTACCGTGAA
For B2, the binding signal ([1]; label: FAM in flow cytometry) was 162 RU, the binding result (Procalcitonin (PCT)) was “no binding” and the binding result (Serum amyloid A1 (SAA1)) was “no binding”. The binding result (C-reactive protein (CRP)) was “no binding”, the binding result (Interleukin-6 (IL-6)) was “no binding” and the Kd [2] was 1.44 nM.

B3: Apt-08 (ssDNA)
DNA: TTCAGCACTCCACGCATAGCTCATCGCGAGCGACACGTTACCGTGCTTTACTACCGCCTATGCGTGCTACCGTGAA
B3 was tested, and the binding signal [1] was 79 RU.

B4: Apt-13 (ssDNA)
DNA: TTCAGCACTCCACGCATAGCTCATCGCCTGCGACATGCTAGCATGCTTTACTACTGCCTATGCGTGCTACCGTGAA
B4: no binding (Procalcitonin (PCT)); no binding (Serum amyloid A1 (SAA1)); no binding (C-reactive protein (CRP)). The binding result (Interleukin-6 (IL-6)) was “no binding” and the Kd [2] was 1.04 nM.

B5: Apt-05 (ssDNA)
DNA: TTCAGCACTCCACGCATAGCTTCACCTACACCGCGACCGCGTTCAGCCTCTGCAGGCCTATGCGTGCTACCGTGAA
For B5, the binding signal [1] was 132 RU.

B6: Apt-09 (ssDNA)
DNA: TTCAGCACTCCACGCATAGCCTTGCCTACCGATCCTGGATCTCAGCTGTACCACAGCCTATGCGTGCTACCGTGAA
In the case of B6, the binding signal [1] is reported as 87.5 RU.

B7: Apt-15 (ssDNA)
DNA: TTCAGCACTCCACGCATAGCTTCACCTACTGCCCTAGCTCAGCCGTCTCCATCCGGCCTATGCGTGCTACCGTGAA
Work on B7 yielded a binding signal [1] of 72.5 RU.

B8: Apt-07 (ssDNA)
DNA: TTCAGCACTCCACGCATAGCCTTGCCTACCGGACGAAGTACTCAGTCACTCCGTGACCTATGCGTGCTACCGTGAA
For B8, the binding signal [1] was 76.2 RU.

B9: Apt-12 (ssDNA)
DNA: TTCAGCACTCCACGCATAGCTTCACCTACTGGCATATGCCTCAGTCCACTCCTGGACCTATGCGTGCTACCGTGAA
Work on B9 yielded a binding signal [1] of 107 RU.

B10: Apt-14 (ssDNA)
DNA: TTCAGCACTCCACGCATAGCTTCACCTACCGCCAATCAGCTCAGTGTGTCTCCACACCTATGCGTGCTACCGTGAA
B10 gave a binding signal [1] of 50.3 RU.

B11: Apt-01 (ssDNA)
DNA: TTCAGCACTCCACGCATAGCTTCACCTACCGCAATCCGTTGCTCAGTGCTACCGCACCTATGCGTGCTACCGTGAA
B11 was tested, and the binding signal ([1]; label: FAM in flow cytometry) was 424 RU, the binding result (Procalcitonin (PCT)) was “no binding” and the binding result (Serum amyloid A1 (SAA1)) was “no binding”. The binding result (C-reactive protein (CRP)) was “no binding”, the binding result (Interleukin-6 (IL-6)) was “no binding” and the Kd [2] was 3.42 nM.

B12: Apt-04 (ssDNA)
DNA: TTCAGCACTCCACGCATAGCTTCATCTACCCCGCCAAGGTCAGCCACGTCAGTGTGCCTATGCGTGCTACCGTGAA
B12 gave a binding signal [1] of 121 RU.

B13: Apt-18 (ssDNA)
DNA: TTCAGCACTCCACGCATAGCTTTACCTACCGCATCGCTCAGTCAACCATTGGTGGACCTATGCGTGCTACCGTGAA
For B13, the binding signal [1] was 41.2 RU.

B14: Apt-20 (ssDNA)
DNA: TTCAGCACTCCACGCATAGCTTCACCTACCGCCGAAGGCTCAGTCCGTGCTTCGGACCTATGCGTGCTACCGTGAA
B14 gave a binding signal [1] of 99 RU.
